Source: patent US20200129639A1 (Seagen, published 2020)

Molecular target: T1, CD19 (UniProt P15391 20-556, limits assumed)
T1 sequence (looked up): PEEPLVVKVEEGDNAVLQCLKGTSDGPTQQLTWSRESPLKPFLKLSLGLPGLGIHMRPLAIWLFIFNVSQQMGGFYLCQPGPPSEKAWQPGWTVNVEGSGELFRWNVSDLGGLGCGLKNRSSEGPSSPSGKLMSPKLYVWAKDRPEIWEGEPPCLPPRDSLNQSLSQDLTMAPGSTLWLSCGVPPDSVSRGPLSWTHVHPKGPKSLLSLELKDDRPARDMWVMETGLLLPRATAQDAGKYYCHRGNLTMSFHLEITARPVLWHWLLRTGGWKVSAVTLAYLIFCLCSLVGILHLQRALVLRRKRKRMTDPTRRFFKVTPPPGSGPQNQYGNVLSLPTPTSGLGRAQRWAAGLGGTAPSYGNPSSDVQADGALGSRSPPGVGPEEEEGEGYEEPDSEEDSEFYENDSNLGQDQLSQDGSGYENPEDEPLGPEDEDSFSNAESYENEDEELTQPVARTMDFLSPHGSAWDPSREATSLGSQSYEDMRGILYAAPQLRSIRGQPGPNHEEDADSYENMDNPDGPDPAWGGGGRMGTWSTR
Experiment: cell-based or functional assay

B1: hBU12 co-conjugate (2 drugs on 1 ADC) (antibody, V domains shown)
VH: QVQLQESGPGLVKPSQTLSLTCTVSGGSISTSGMGVGWIRQHPGKGLEWIGHIWWDDDKRYNPALKSRVTISVDTSKNQFSLKLSSVTAADTAVYYCARMELWSYYFDYWGQGTLVTVSS
VL: EIVLTQSPATLSLSPGERATLSCSASSSVSYMHWYQQKPGQAPRLLIYDTSKLASGIPARFSGSGSGTDFTLTISSLEPEDVAVYYCFQGSVYPFTFGQGTKLEIKR
  Co-Conjugate IC50 (ng/mL), cytotoxicity on Granta-519 cells: 3 ng/mL
  Co-Conjugate IC50 (ng/mL), cytotoxicity on SU-DHL-16 cells: 0.2 ng/mL
